One may read the IC50 as the point on the concentration scale where inhibition reaches its midpoint.

In one experiment the target is HLA-DP DPB1*2001 (human). Nature of the experiment: inhibition of radiolabeled peptide binding to purified HLA-DP.
The next experiment concerns the target HLA-DP DPB1*0201 (human). Described as above.
For experiment [1], the target named is HLA-DR molecule DRB1*0162 (so in the source) (human). Nature of the experiment: radiolabeled-peptide competition on purified HLA class II.
The target in experiment [2] is HLA DP molecule DPB1*1401 (human). Nature of the experiment: inhibition of radiolabeled peptide binding to purified HLA DP.
Experiment [3] addresses HLA DP molecule DPB1*2001 (human). The description is as above.
The target in experiment [4] is HLA-DQ molecule DQB1*0503 (human). Nature of the experiment: competition: inhibition of radiolabeled peptide binding to purified HLA.
In experiment [5] the target is HLA-DQ molecule DQB1*0202 (human). The description is as above.
Experiment [6] deals with HLA-DQ molecule DQB1*0602 (human). The experiment is described as above.
For experiment [7], the target named is HLA-DQ molecule DQB1*0502 (human). The experiment is described as above.
The target in experiment [8] is HLA DP molecule DPB1*1401 (human). The experiment can be described thus: competition vs radiolabeled peptide, purified HLA-DP.
The target in experiment [9] is HLA DP molecule DPB1*2001 (human). Described as above.
Experiment [10] has as its target HLA DP molecule DPB1*0501 (human). The description is as above.

Aln g 1 (16-30) peptide 3324.0003: the IC50 with HLA-DP DPB1*2001 (human) is 2.57 µM; with HLA-DP DPB1*0201 (human), 0.036 µM.

For “Alt a 1 peptide 3324.0013 (position 111)”, in [1], the IC50 was 0.856 µM.

As to “Alt a 1 peptide 3324.0014 (position 116)”, the IC50 in experiment [1] was 0.504 µM.

Alt a 1 peptide 3324.0015 (position 6) gave an IC50 in experiment [1] of 0.871 µM. Still for that read-out and setting: then Alt a 1 peptide 3324.0017 (position 11), with 0.956 µM. Regarding “Alt a 1 peptide, position 11 (Peptide ID 3324.0017)”, the IC50 was determined as 0.125 µM in experiment [2] and 0.184 µM in experiment [3].

As for “Alt a 1 peptide, position 111 (Peptide ID 3324.0013)”, in [2], the IC50 is 4.37 µM. With “Alt a 1 peptide, position 111, Peptide ID 3324.0013”, the IC50 in experiment [4] came out at 19.4 µM; in [5], 8.36 µM.

Turning to “Alt a 1 peptide, position 141 (Peptide ID 3324.0011)”, the figures for the IC50 in experiment [2] and in experiment [3] were 3.39 µM and 8.83 µM, respectively. On to “Alt a 1 peptide, position 141, Peptide ID 3324.0011”, for which the IC50 stood at 9.1 µM in [4], 31.7 µM in experiment [5], 4.95 µM in experiment [6] and 6.01 µM in experiment [7]. Take “Alt a 1 peptide, position 143 (Peptide ID 3324.0016)”: the IC50 in experiment [2] was determined as 1.43 µM; in [3], 8.65 µM. For the substance “Alt a 1 peptide, position 143, Peptide ID 3324.0016”, the 50% inhibitory concentration (IC50) is 7.02 µM in experiment [5], 0.07 µM in experiment [6] and 7.75 µM in [7]. With “Alt a 5 peptide, position 51, … (Peptide ID 3324.0065)”, the IC50 turned out to be 0.05 µM in [8] and 7.5 µM in [9]. On to “Alt a 7 peptide, position 6, … (Peptide ID 3324.0085)”, for which the IC50 in experiment [10] is 0.047 µM; in experiment [9], 1.29 µM. Turning to “Alt a 7 peptide, position 190, … (Peptide ID 3324.0080)”, the figures for the IC50 in experiment [8] and in experiment [9] were 0.938 µM and 0.077 µM, respectively.

Consider “Cla h 6 peptide, position 161, … (Peptide ID 3324.0588)”, for which the values for the 50% inhibitory concentration (IC50) in experiment [8] and in [9] were 9.67 µM and 29.6 µM, respectively. For “Cla h 8 peptide, position 151, … (Peptide ID 3324.0603)”, the IC50 in experiment [8] is 0.036 µM. Take Der p 4 (86-100) peptide 3324.0981: the IC50 amounted to 0.017 µM with HLA-DP DPB1*2001 (human) and 0.22 µM in the experiment with HLA-DP DPB1*0201 (human).

(Values after US20150004189A1.)
